Assay results as given in paper PMC12263435, “Mechanistic basis for PYROXD1-mediated protection of the human tRNA ligase complex against oxidative inactivation” (Nature Structural & Molecular Biology, 2025).

T1: RTCB (with Archease) (Homo sapiens, UniProt Q9Y3I0)
T1 construct: RTCB, N-terminal tag cut by TEV, Sf9; Archease residues 27-168, His6-MBP cut, E. coli; with Protein archease
T1 sequence (Q9Y3I0 1-505): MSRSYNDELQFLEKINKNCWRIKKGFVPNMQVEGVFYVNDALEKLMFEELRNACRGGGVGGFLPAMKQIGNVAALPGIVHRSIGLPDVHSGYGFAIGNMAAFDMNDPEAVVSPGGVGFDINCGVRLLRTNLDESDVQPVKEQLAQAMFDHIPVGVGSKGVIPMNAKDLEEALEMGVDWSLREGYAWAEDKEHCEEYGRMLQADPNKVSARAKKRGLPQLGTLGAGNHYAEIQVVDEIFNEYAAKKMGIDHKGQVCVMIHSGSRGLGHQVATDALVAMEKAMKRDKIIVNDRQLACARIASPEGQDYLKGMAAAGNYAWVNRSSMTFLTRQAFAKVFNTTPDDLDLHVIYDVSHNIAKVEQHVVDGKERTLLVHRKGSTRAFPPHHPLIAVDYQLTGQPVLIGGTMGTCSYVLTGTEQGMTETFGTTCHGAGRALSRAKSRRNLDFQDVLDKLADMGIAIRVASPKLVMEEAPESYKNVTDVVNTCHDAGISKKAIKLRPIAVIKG
T1 sequence (Q8IWT0 27-167 partner): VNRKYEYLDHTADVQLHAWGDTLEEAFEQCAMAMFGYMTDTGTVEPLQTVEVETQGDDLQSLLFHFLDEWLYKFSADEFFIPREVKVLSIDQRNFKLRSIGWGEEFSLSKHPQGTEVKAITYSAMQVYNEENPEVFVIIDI

T2: RTCB (human, UniProt Q9Y3I0 1-505)
T2 construct: human RTCB (UniProt Q9Y3I0); inserted into the 438B plasmid (N-terminal hexahistidine tag, TEV site); the tag is removed by TEV in either case; also called apo-RTCB; un-guanylylated RTCB; source: Sf9 insect cells (baculovirus), purified (Ni-NTA, TEV cleavage, SEC); not shown: His6, N-terminal, cleaved
T2 sequence: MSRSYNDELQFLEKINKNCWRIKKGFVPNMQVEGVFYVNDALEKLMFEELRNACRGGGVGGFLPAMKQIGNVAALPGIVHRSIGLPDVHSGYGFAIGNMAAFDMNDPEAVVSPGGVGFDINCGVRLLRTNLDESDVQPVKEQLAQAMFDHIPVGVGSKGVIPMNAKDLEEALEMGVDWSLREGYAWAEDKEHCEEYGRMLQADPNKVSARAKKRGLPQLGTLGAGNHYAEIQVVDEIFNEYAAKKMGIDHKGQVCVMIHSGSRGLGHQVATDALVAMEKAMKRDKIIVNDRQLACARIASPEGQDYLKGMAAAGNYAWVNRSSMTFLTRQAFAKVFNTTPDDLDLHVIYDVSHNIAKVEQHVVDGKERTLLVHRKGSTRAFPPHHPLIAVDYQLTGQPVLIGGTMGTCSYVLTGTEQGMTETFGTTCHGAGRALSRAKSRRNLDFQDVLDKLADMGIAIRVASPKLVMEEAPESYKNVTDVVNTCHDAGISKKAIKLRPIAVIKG

T3: StrepII–GFP–RTCB (human, UniProt Q9Y3I0 1-505)
T3 construct: human RTCB (UniProt Q9Y3I0), catalytic subunit of the tRNA ligase complex; inserted into the 438-Rgfp plasmid; a TEV site lies between GFP and RTCB; In the dissociation assay it is called 2× StrepII–GFP–RTCB; also called immobilized RTCB; 2× StrepII–GFP–RTCB; source: Sf9 insect cells (baculovirus), purified (Strep-Tactin, SEC); not shown: StrepII, N-terminal, kept; super folder green fluorescent …
T3 sequence: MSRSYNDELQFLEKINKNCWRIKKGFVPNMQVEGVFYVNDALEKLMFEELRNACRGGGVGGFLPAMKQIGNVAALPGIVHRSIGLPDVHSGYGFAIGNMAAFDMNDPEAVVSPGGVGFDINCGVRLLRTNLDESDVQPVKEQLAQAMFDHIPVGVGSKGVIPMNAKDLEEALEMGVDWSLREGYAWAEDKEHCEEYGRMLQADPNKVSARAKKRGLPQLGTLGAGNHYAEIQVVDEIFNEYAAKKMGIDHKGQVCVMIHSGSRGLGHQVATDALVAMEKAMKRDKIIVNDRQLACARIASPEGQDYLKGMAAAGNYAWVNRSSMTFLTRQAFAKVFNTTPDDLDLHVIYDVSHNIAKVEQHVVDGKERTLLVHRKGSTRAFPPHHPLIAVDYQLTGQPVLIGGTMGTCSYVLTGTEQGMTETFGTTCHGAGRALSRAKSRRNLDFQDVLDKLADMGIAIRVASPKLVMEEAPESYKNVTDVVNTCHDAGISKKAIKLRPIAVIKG


Columns and labels:
RTCB (with Archease) = target: T1, RTCB (with Archease); assay: guanylylation of RTCB, intact-protein LC-MS; format: biochemical; conditions: covalent GMP adduct on RTCB His428, 2.5 mM MnCl2, 0.5 mM GTP, 20 mM HEPES pH 8.0, 25 °C
purified protein = substrate: NC(=O)C1=CN([C@@H]2O[C@H](COP(=O)(O)OP(=O)(O)OC[C@H]3O[C@@H](n4cnc5c(N)ncnc54)[C@H](O)[C@@H]3O)[C@@H](O)[C@H]2O)C=CC1; assay: purified protein; format: biochemical, Homo sapiens; conditions: aerobic (O2 as acceptor), 20 mM Tris-HCl pH 8.0, 150 mM KCl, 0.05% Tween-20, 22 °C
RTCB = target: T2, RTCB; assay: cryo-EM structure; 100 µM RTCB mixed 1:1 with 100 µM PYROXD1 in 20 mM HEPES pH 8.0, 150 mM NaCl, 0.5 mM TCEP, 5 mM MgCl2, 0.5 mM NADH; SEC; single-particle cryo-EM; conditions: both partners purified
StrepII–GFP–RTCB = target: T3, StrepII–GFP–RTCB; assay: pull-down; dissociation kinetics: complex formed with 0.5 mM NADH and 5 mM MgCl2, held on Strep-Tactin beads via StrepII–GFP–RTCB, NADH and unbound PYROXD1 washed out, bound PYROXD1 followed over time under aerobic conditions; Coomassie Blue; conditions: both partners purified

| stoichiometry N (RTCB) | half-life of the complex upon NADH removal (StrepII–GFP–RTCB) [min] | Molecule | guanylylation of RTCB, intact-protein LC-MS (RTCB (with Archease)) | Km (purified protein) [µM] |
| --- | --- | --- | --- | --- |
| – | – | Nc1nc2c(ncn2[C@@H]2O[C@H](COP(=O)(O)OP(=O)(O)OP(=O)(O)O)[C@@H](O)[C@H]2O)c(=O)[nH]1 [GTP] | generating a mixture of guanylylated and un-guanylylated RTCB | – |
| 1 | ~2 | PYROXD1 (enzyme, human, human PYROXD1 (UniProt Q8WU10), amplified from HeLa cDNA, in pGEX-6P-1; FAD-containing flavoprotein; also called wild-type PYROXD1; WT; source: E. coli BL21(DE3), purified (Glutathione Sepharose, 3C cleavage, SEC); not shown: GST, N-terminal, cleaved) MEAARPPPTAGKFVVVGGGIAGVTCAEQLATHFPSEDILLVTASPVIKAVTNFKQISKILEEFDVEEQSSTMLGKRFPNIKVIESGVKQLKSEEHCIVTEDGNQHVYKKLCLCAGAKPKLICEGNPYVLGIRDTDSAQEFQKQLTKAKRIMIIGNGGIALELVYEIEGCEVIWAIKDKAIGNTFFDAGAAEFLTSKLIAEKSEAKIAHKRTRYTTEGRKKEARSKSKADNVGSALGPDWHEGLNLKGTKEFSHKIHLETMCEVKKIYLQDEFRILKKKSFTFPRDHKSVTADTEMWPVYVELTNEKIYGCDFIVSATGVTPNVEPFLHGNSFDLGEDGGLKVDDHMHTSLPDIYAAGDICTTSWQLSPVWQQMRLWTQARQMGWYAAKCMAAASSGDSIDMDFSFELFAHVTKFFNYKVVLLGKYNAQGLGSDHELMLRCTKGREYIKVVMQNGRMMGAVLIGETDLEETFENLILNQMNLSSYGEDLLDPNIDIEDYFD | – | 611.0 ± 98.3 |
